{
  "source": "paper PMC9221443",
  "about": "“Peptidomimetics Based on C-Terminus of Blm10 Stimulate Human 20S Proteasome Activity and Promote Degradation of Proteins” (Biomolecules, 2022)",
  "experiment_in_all_cases": "MST; NT-647-labelled protein kept constant (250 nM native and oxidized α-synuclein, 125 nM native enolase, 25 nM oxidized enolase), unlabelled h20S titrated in 16 dilutions from 1965 to 0.06 nM; 60 min (enolase) or 30 min (α-synuclein) at 22 °C; 20 mM Tris-HCl pH 7.2, 10% glycerol, 0.5 mM DTT, 0.5 mM NaN3, 0.125 mM EDTA, 100 mM NaCl; Hill fit, three independent experiments",
  "key": {"[1]": {"molecular_target": "oxidized human enolase 2 (human) (UniProt P09104)"}, "oxidized α-synuclein": {"molecular_target": "oxidized α-synuclein (UniProt P37840)"}, "α-synuclein": {"molecular_target": "α-synuclein (UniProt P37840)"}},
  "data": [
    {"substance": "human 20S proteasome (from UniProt P25786 4-241; P28066 8-241; P28072 35-239; Q99436 44-277; P28074 60-263) (complex)", "values": [
      {"measurement": "EC50", "setting": "[1]", "result": 87.8, "unit": "nM"},
      {"measurement": "EC50", "setting": "oxidized α-synuclein", "result": 67.6, "unit": "nM"},
      {"measurement": "EC50", "setting": "α-synuclein", "result": 32.3, "unit": "nM"}
    ]}
  ]
}
